In patent publication US20030211964, “Method of inhibiting pathogenicity of infectious agents” (Massachusetts Institute of Technology, published 2003):

T1: ZαADAR1 Y177A Y177A (Homo sapiens) (UniProt P55265)
T1 sequence: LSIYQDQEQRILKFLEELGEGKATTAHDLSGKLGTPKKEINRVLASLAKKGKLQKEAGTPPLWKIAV

T2: ZαADAR1 Y177F Y177F (Homo sapiens) (UniProt P55265)
T2 sequence: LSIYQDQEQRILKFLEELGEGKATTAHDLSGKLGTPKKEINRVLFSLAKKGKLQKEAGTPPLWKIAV

T3: Zα domain of ADAR1 (hZαADAR1) (Homo sapiens) (UniProt P55265)
T3 sequence: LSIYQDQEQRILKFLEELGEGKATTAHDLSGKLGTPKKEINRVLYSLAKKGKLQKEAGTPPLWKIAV

T4: ZαADAR1 E171A (Homo sapiens, UniProt P55265 SEQ:1-67, E171A)
T4 sequence: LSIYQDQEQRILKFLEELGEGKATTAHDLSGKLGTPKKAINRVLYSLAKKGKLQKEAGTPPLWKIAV

T5: ZαADAR1 Q186A (Homo sapiens, UniProt P55265 SEQ:1-67, Q186A)
T5 sequence: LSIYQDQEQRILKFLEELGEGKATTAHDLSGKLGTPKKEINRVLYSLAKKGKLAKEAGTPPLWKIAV

T6: Zα domain of ADAR1 (hZαADAR1) (Homo sapiens, UniProt P55265 SEQ:1-67)
T6 sequence: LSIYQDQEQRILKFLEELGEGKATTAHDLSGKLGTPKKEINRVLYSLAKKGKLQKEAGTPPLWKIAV

T7: Zβ domain of ADAR1 (hZβADAR1) (Homo sapiens, UniProt P55265 SEQ:1-62)
T7 sequence: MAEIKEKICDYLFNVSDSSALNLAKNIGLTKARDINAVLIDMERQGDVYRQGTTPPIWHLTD

B1: d(CG)6 (dsDNA)
DNA 1: CGCGCGCGCGCG
DNA 2: CGCGCGCGCGCG

Key:
[1] = molecular target: T1, ZαADAR1 Y177A Y177A (Homo sapiens); test: SPR; conditions: partial bromination (stabilises Z form); Z-DNA stabilised by bromination
[2] = molecular target: T2, ZαADAR1 Y177F Y177F (Homo sapiens); test: SPR; conditions: partial bromination (stabilises Z form); Z-DNA stabilised by bromination
[3] = molecular target: T3, Zα domain of ADAR1 (hZαADAR1) (Homo sapiens); test: SPR; conditions: partial bromination (stabilises Z form); Z-DNA stabilised by bromination
ZαADAR1 E171A = molecular target: T4, ZαADAR1 E171A; test: CD at 255 nm; rate comparable to wild type
ZαADAR1 Q186A = molecular target: T5, ZαADAR1 Q186A; test: CD at 255 nm; rate comparable to wild type
[4] = molecular target: T6, Zα domain of ADAR1 (hZαADAR1); test: CD at 255 nm; rapid, complete B-to-Z conversion; 90 uM bp DNA, 30 uM protein
[5] = molecular target: T7, Zβ domain of ADAR1 (hZβADAR1); test: CD at 255 nm; no change over time

Molecule	Kd [1] [nM]	Kd [2] [nM]	Kd [3] [nM]	binding result (ZαADAR1 E171A)	binding result (ZαADAR1 Q186A)	binding result [4]	binding result [5]
partially brominated poly(dG-dC)	700	350	40	–	–	–	–
B1	–	–	–	binds	binds	binds	no binding
